# Results reported in PMC11533912 (Journal of Nuclear Medicine, 2024).
# “Also recorded” adds a separate entry of the source.
# Legend:
# [1] = Biodistribution in PC-3 tumor-bearing mice; assay type: in vivo, athymic nude male mice
# Description: (§1) For all tumor studies, 1 × 10^6 PC-3 cells were implanted subcutaneously into the right flank of each mouse in a mixture of equal volumes of HC-Matrigel (high concentration; Corning) and RPMI medium (Gibco) and grown to a volume of about 200–300 mm^3.
# PC-3 tumors were grown in male mice until an approximate tumor volume of 300 mm^3 was reached. […] The background was automatically subtracted from the counts. A standard was also used for decay correction, and the percent injected dose (%ID) per gram of tissue was calculated for each organ collected.
# FIGURE 3. In vivo distribution of [^212Pb]Pb-DOTAM-GRPR1. (A) In athymic nude male mice carrying subcutaneous PC-3 tumors, 370 kBq of drug were administered and organs were collected from 5 mice per time point: 1, 4, and 24 h after injection. (B) At different specific activity in PC-3 tumor-bearing mice, 370 kBq per 28, 140, or 280 ng of DOTAM-GRPR1 were administered and organs were collected from 5 mice per time point: 1, 4, and 24 h after injection. Tissue uptake is expressed as %ID/g ± SD (n = 5). All tissues with uptake below 2% at 1 h were excluded from graph. ***P = 0.00013 between 280 ng of pancreas and 28 ng of pancreas.
# [2] = Biodistribution in tumor-free CD-1 mice; assay type: in vivo
# PC-3 xenograft tumors = experiment: α-imaging and biodistribution in PC-3 tumors of varying size; assay type: in vivo, mice
# Description: as §1
# Images were analyzed using Andor Solis software (ImageJ).
# FIGURE 5. Biodistribution in varying-size tumors and drug microdistribution in tumor using α-imaging of [^212Pb]Pb-DOTAM-GRPR1. […] (B) Biodistribution of drug at 4 h after injection in tumors measuring 150 mm^3 (n = 5), 300 mm^3 (n = 6), 600 mm^3 (n = 4), and 900 mm^3 (n = 3). In left panel, tissue uptake is expressed as %ID/g ± SD (P < 0.05). Right panel is expressed as %ID ± SD. H&E = hematoxylin and eosin; LWH = length × width × height.
# [3] = Dosimetry: absorbed radiation dose calculation from mouse biodistribution; details: for Estimated absorbed dose, pancreas / Estimated absorbed dose, red marrow / Estimated absorbed dose, urinary bladder wall / Estimated absorbed dose, kidneys / Estimated absorbed dose, spleen / Estimated absorbed dose, liver / Estimated absorbed dose, heart wall / Estimated absorbed dose, stomach (stem cell layer) / Estimated absorbed dose, lungs (alveolar–interstitial): RBE 5, female mice; for Estimated absorbed dose, red marrow: dose limit 2; for Estimated absorbed dose, urinary bladder wall: dose limit 20; for Estimated absorbed dose, kidneys: dose limit 23; for Estimated absorbed dose, spleen: dose limit 26; for Estimated absorbed dose, liver: dose limit 30; for Estimated absorbed dose, heart wall / Estimated absorbed dose, stomach (stem cell layer): dose limit 45; for Estimated absorbed dose, lungs (alveolar–interstitial): dose limit 65; for Administered activity at which 23-Gy kidney threshold is reached: female mice as printed, projected mean absorbed dose by modeling
# Description: Physical decay was used to extrapolate after the last time point. The human equivalent time-integrated activity coefficient for both sexes was calculated by extrapolating mouse biodistribution data to human using standard methods assuming that tissue concentration divided by whole-body concentration in mice is the same as that in humans.
# The linear energy transfer of α-particles is approximately 400 times greater than that of photons and β-particles. This difference in energy deposition density leads to fundamentally different biologic effects. Accordingly, the absorbed doses for these different emission types should be weighted appropriately to reflect likely biologic effects. The relative biological effectiveness (RBE) is the appropriate weighting factor for deterministic effects such as tissue toxicity and tumor kill efficacy. The tissue-absorbed doses (with RBE values of 3 and 5) for ^212Pb compounds were calculated.
# [4] = Toxicity (dose escalation) study in tumor-free nude mice
# Description: Control mice received buffer only. Animals were weighed 3 times per week and monitored daily for signs of pain or distress over a 4-wk period after the last injection. Blood was sampled via the submandibular vein using potassium–ethylenediaminetetraacetic acid capillaries and tubes (Greiner Bio-One), and complete cell blood counts were performed using a VETSCAN HM5 hematology analyzer (Abaxis/Zoetis). Animals were euthanized at the scheduled termination or when the termination criteria were met.
# Mice were euthanized when tumor volumes reached 1,000 mm^3 (length × width × height) or other predetermined termination criteria were met (weight loss > 15% for 2 consecutive days or 20% weight loss from initial weight, serious bleeding, necrosis or ulceration of the tumor, scruffiness or lack of grooming over 5 d, lethargy over 3 d, weakness/balance issues over 5 d, hunchback appearance, diarrhea, or hypothermia).
structure (smiles),measurement,setting,value
"CC(C)C[C@H](NC(=O)C[C@H](O)[C@H](CC(C)C)NC(=O)[C@H](Cc1c[nH]cn1)NC(=O)CNC(=O)[C@@H](NC(=O)[C@H](C)NC(=O)[C@H](Cc1c[nH]c2ccccc12)NC(=O)[C@H](CCC(N)=O)NC(=O)[C@@H](Cc1ccccc1)NC(=O)CCNC(=O)CCNC(=O)CN1CCN(CC(N)=O)CCN(CC(N)=O)CCN(CC(N)=O)CC1)C(C)C)C(N)=O [[^212Pb]Pb-DOTAM-GRPR1, metal not drawn]",PC-3 tumor uptake over time,"[1]; 4–24 h after administration, 370 kBq, intravenous, athymic nude male mice, n = 5 per time point",remained constant for 4–24 h after drug administration
same,"Washout, pancreas versus tumor",[1]; PC-3 tumor-bearing mice,faster washout was observed from the pancreas than from tumor tissues
same,tissue uptake at 1 h,"[1]; mouse, PC-3 tumor, 1 h after administration, 370 kBq, intravenous (tail vein), athymic nude male mice, n = 5 per time point",~5 %ID/g
same,"Biodistribution profile, activity in nontumor tissues","[1]; nonclinical, mice",safe biodistribution profile with a considerably low activity in nontumor tissues
same,Tumor targeting,"[1]; up to value, over 24 h, intravenous, GRPR-positive prostate tumor-bearing mice",up to 5 percent injected dose per gram
same,Kidney uptake compared with radiolabeled somatostatin receptor ligands such as [^212Pb]Pb-DOTAMTATE with renal blocker,"[1]; without renal blocker, comparator ref 9",well below kidney retention values of radiolabeled somatostatin receptors ligands
same,Pancreas and kidney accumulation at 24 h,"[2]; 24 h after injection, pancreas and kidneys, strain not clearly stated",significantly less accumulation by 24 h after injection
same,tissue uptake at 4 h,"[2]; mouse, all tissues, intravenous, 4 h after drug administration, tumor-free CD-1 mice, 'well below'",< 10 %ID/g
same,Nontarget uptake ranking,"[2]; pancreas and kidneys, strain not clearly stated",The pancreas and kidneys showed the highest nontarget uptake
same,Biodistribution profile / accumulation in normal organs,[2]; tumor-free CD-1 mice,did not reveal any unexpected accumulation in normal organs
same,Correlation of tumor volume and tumor uptake,"PC-3 xenograft tumors; 4 h after injection, tumors 150 (n = 5), 300 (n = 6), 600 (n = 4), 900 mm^3 (n = 3), visible in %ID/g but not in %ID",negative correlation between tumor volume and tumor uptake; also recorded: lower tumor uptake in large tumors (%ID/g but not %ID)
same,"Microdistribution in PC-3 tumors (α-imaging, H&E)","PC-3 xenograft tumors; tumor sizes up to 900 mm^3, except necrotic areas","homogeneous distribution of the drug at various tumor sizes of up to 900 mm^3, except for the necrotic areas; also recorded: homogeneous microdistribution"
same,Radiation type contribution to total absorbed dose,[3],α-radiation comprised most of the total absorbed dose
same,"Estimated absorbed dose, pancreas",[3]; 0.111 GBq (3 mCi),0.287 grays
same,"Estimated absorbed dose, red marrow",[3]; 0.111 GBq (3 mCi),0.001 grays
same,"Estimated absorbed dose, urinary bladder wall",[3]; 0.111 GBq (3 mCi),0.021 grays
same,"Estimated absorbed dose, kidneys",[3]; 0.111 GBq (3 mCi),0.308 grays
same,"Estimated absorbed dose, spleen",[3]; 0.111 GBq (3 mCi),0.018 grays
same,"Estimated absorbed dose, liver",[3]; 0.111 GBq (3 mCi),0.109 grays
same,"Estimated absorbed dose, heart wall",[3]; 0.111 GBq (3 mCi),0.007 grays
same,"Estimated absorbed dose, stomach (stem cell layer)",[3]; 0.111 GBq (3 mCi),0.044 grays
same,"Estimated absorbed dose, lungs (alveolar–interstitial)",[3]; 0.111 GBq (3 mCi),0.022 grays
same,"Estimated absorbed dose, pancreas",[3]; 0.555 GBq (15 mCi),1.434 grays
same,"Estimated absorbed dose, red marrow",[3]; 0.555 GBq (15 mCi),0.004 grays
same,"Estimated absorbed dose, urinary bladder wall",[3]; 0.555 GBq (15 mCi),0.103 grays
same,"Estimated absorbed dose, kidneys",[3]; 0.555 GBq (15 mCi),1.540 grays
same,"Estimated absorbed dose, spleen",[3]; 0.555 GBq (15 mCi),0.091 grays
same,"Estimated absorbed dose, liver",[3]; 0.555 GBq (15 mCi),0.543 grays
same,"Estimated absorbed dose, heart wall",[3]; 0.555 GBq (15 mCi),0.036 grays
same,"Estimated absorbed dose, stomach (stem cell layer)",[3]; 0.555 GBq (15 mCi),0.219 grays
same,"Estimated absorbed dose, lungs (alveolar–interstitial)",[3]; 0.555 GBq (15 mCi),0.108 grays
same,"Estimated absorbed dose, pancreas",[3]; 1.110 GBq (30 mCi),2.867 grays
same,"Estimated absorbed dose, red marrow",[3]; 1.110 GBq (30 mCi),0.008 grays
same,"Estimated absorbed dose, urinary bladder wall",[3]; 1.110 GBq (30 mCi),0.206 grays
same,"Estimated absorbed dose, kidneys",[3]; 1.110 GBq (30 mCi),3.080 grays
same,"Estimated absorbed dose, spleen",[3]; 1.110 GBq (30 mCi),0.183 grays
same,"Estimated absorbed dose, liver",[3]; 1.110 GBq (30 mCi),1.086 grays
same,"Estimated absorbed dose, heart wall",[3]; 1.110 GBq (30 mCi),0.071 grays
same,"Estimated absorbed dose, stomach (stem cell layer)",[3]; 1.110 GBq (30 mCi),0.438 grays
same,"Estimated absorbed dose, lungs (alveolar–interstitial)",[3]; 1.110 GBq (30 mCi),0.216 grays
same,Dose-limiting organ,[3]; calculated mean effective absorbed dose,kidney as the dose-limiting organ; also recorded: the kidneys were shown to be dose-limiting
same,Administered activity at which 23-Gy kidney threshold is reached,[3]; RBE 3,13.6 GBq
same,Administered activity at which 23-Gy kidney threshold is reached,[3]; RBE 5,8.3 GBq
same,Organs with highest absorbed doses,[3]; male and female mice,the kidneys and pancreas revealed the highest doses for both male and female animals; also recorded: The kidneys and pancreas received the highest dose
same,"Estimated absorbed dose, pancreas",[3]; maximum 8.29 GBq (224.05 mCi),21.42 grays
same,"Estimated absorbed dose, red marrow",[3]; maximum 8.29 GBq (224.05 mCi),0.06 grays
same,"Estimated absorbed dose, urinary bladder wall",[3]; maximum 8.29 GBq (224.05 mCi),1.54 grays
same,"Estimated absorbed dose, kidneys",[3]; maximum 8.29 GBq (224.05 mCi),23.00 grays
same,"Estimated absorbed dose, spleen",[3]; maximum 8.29 GBq (224.05 mCi),1.37 grays
same,"Estimated absorbed dose, liver",[3]; maximum 8.29 GBq (224.05 mCi),8.11 grays
same,"Estimated absorbed dose, heart wall",[3]; maximum 8.29 GBq (224.05 mCi),0.53 grays
same,"Estimated absorbed dose, stomach (stem cell layer)",[3]; maximum 8.29 GBq (224.05 mCi),3.27 grays
same,"Estimated absorbed dose, lungs (alveolar–interstitial)",[3]; maximum 8.29 GBq (224.05 mCi),1.61 grays
same,Hematologic toxicity or weight loss,"[4]; 1,665 kBq, 30 d, athymic nude male mice",no hematologic toxicity or weight loss
same,Survival in acute toxicity study,"[4]; 1,665 kBq, full 30-d period, athymic nude male mice",all animals survived for the full 30-d period
same,Histopathologic examination,"[4]; all groups, male athymic nude mice",all groups were essentially within the normal limits
same,Tolerability / signs of radiation or lead injury,"[4]; doses used, 370–1,665 kBq single or 3 × 370 or 555 kBq, male athymic nude mice","well tolerated at the doses used, with no signs of radiation or lead injury"
same,Body weight loss,"[4]; highest dose: single 1,665 kBq or 3 fractionated doses of 555 kBq, tumor-free nude male mice",body weight loss was minimal after administration and was followed by body weight gain
same,"Kidneys, gastrointestinal mucosa, bone marrow and other organs","[4]; histopathology, male athymic nude mice",unremarkable
same,Toxic dose,"[4]; male athymic nude mice, intravenous","more than 1,665 kBq"
same,Nontoxic dose,"[4]; up to, mice, intravenous","up to 1,665 kBq"
